{
  "source": "paper PMC3220508",
  "target": "HSPC038-EYFP fusion protein (human) (UniProt Q9Y5V0)",
  "sequence (Q9Y5V0 whole entry, the tested form may be a part)": "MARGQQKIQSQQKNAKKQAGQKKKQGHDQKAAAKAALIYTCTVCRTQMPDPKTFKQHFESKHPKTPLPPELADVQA",
  "assay": "FRET or BRET",
  "data": [
    {"substance": "ICln-ECFP fusion protein (from UniProt P54105 1-237) (natural protein)", "values": [
      {"measurement": "normalized netFRET, 5 min hypotonic (isotonic = 1.00)", "result": 1.31},
      {"measurement": "normalized netFRET, 15 min hypotonic (isotonic = 1.00)", "result": 1.44},
      {"measurement": "normalized netFRET, 30 min hypotonic (isotonic = 1.00)", "result": 1.49}
    ]}
  ]
}
